Key:
Assay in all cases: specificity test of the expressed monobodies (method not named)
[1] = molecular target: human Cyclin-Dependent Kinase 2 (human, UniProt P24941 1-298)
BSA = BSA (UniProt P02769 25-607)
CDC34 = molecular target: T1, CDC34 (UniProt P49427 1-236, limits assumed)
T1 sequence (looked up): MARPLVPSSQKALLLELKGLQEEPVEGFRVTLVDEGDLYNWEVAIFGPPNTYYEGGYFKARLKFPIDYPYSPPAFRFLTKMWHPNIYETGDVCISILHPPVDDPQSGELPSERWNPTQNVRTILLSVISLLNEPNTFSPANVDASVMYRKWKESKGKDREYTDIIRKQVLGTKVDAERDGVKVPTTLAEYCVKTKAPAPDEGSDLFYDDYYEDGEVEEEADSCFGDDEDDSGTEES

Measured: binding result

Chain of BSA (P02769 25-607 limits assumed): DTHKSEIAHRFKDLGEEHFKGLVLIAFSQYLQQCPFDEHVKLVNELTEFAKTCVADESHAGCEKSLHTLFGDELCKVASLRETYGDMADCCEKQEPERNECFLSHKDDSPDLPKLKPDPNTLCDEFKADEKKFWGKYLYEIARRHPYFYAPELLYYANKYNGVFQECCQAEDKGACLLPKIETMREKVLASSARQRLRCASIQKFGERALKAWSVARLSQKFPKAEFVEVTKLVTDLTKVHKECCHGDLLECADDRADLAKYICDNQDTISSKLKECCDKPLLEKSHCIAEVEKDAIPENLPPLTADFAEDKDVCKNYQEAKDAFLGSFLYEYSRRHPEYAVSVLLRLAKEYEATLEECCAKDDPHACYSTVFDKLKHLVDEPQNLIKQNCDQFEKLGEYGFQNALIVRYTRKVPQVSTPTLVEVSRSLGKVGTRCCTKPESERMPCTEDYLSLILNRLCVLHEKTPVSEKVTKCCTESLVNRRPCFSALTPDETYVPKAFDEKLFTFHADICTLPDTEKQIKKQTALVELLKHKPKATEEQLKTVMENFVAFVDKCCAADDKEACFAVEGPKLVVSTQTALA

B1: anti-MAP2K5 FN3 monobody clone H1 (designed binder)
chain: MAVSDVPRKLEVVAATPTSLLISWDPYWFSGLYYRITYGETGGNSPVQEFTVPGSKSTATISGLKPGVDYTITVYAVTYYSWGYLVGEIISINYRI
notes: FN3 monobody from the PExSR selection; For the specificity test it was expressed as a SUMO fusion from pET14b-SUMO; also called Anti-MAP2K5 H1
no binding: all assays above

B2: anti-MAP2K5 FN3 monobody clone G4 (designed binder)
chain: MAVSDVPRKLEVVAATPTSLLISWDQDQVYYYRIRYGETGGNSPVQEFTVPGSKSTATISGLKPGVDYTITVYAVTGTSYAYIISINYRI
notes: FN3 (tenth type III domain of fibronectin) monobody from the PExSR selection; It was cloned into the pET14b-SUMO E. coli expression vector (SUMO fusion, purified on His60 resin) for characterisation; also called anti-MAP2K5 clone G4
no binding: all assays above

— US20180371451A1 (BOARD OF TRUSTEES OF THE UNIVERSITY OF ILLINOIS, published 2018)
